For this test, the system named is U251 human glioblastoma cell line. Briefly: in vitro FM-HCR assay of MGMT activity (mPlum O^6MeG reporter plasmid). Type of test: cell-based. Conditions: for Reporter expression (%) mean, O^6BG: 100 μM O^6BG; for Reporter expression (%) mean, O^6BG / Reporter expression (%) mean, DMSO: U251 cells, flow cytometry 24 h after transfection, damaged/undamaged reporter, inversely related to MGMT activity; for Reporter expression (%) mean, DMSO: 0.1% DMSO; for MGMT activity (a.u.) DMSO / MGMT activity (% of WT) DMSO: DMSO condition; for MGMT activity (a.u.) DMSO / MGMT activity (a.u.) O^6BG: determined from percent reporter expression; for MGMT activity (% of WT) DMSO / MGMT activity (% of WT) O^6BG: relative to wild-type MGMT in same condition; for Relative MGMT activity (%): MGMT activity (a.u.) in O^6BG divided by DMSO x 100, higher values indicate resistance; for MGMT activity (a.u.) O^6BG / MGMT activity (% of WT) O^6BG: O^6BG condition; for Ratio percent reporter expression (O^6BG/DMSO): lower values indicate resistance to O^6BG; for O^6BG resistance relative to WT (%): percentage difference in relative MGMT activity between variant and wild-type MGMT. An excerpt:
The present Example includes, in part, an in vitro fluorescence multiplex host cell reactivation (FM-HCR) assay in which a reporter plasmid with O^6MeG-containing oligonucleotides is used. The oligonucleotides induce transcription errors that lead to expression of fluorescent mPlum protein. Functional MGMT will repair the O^6MeG sites and reduce mPlum expression. This represents a rapid and validated assay system to assess intracellular activity of MGMT. Further description of certain such assays is found in Nagel (2014 PNAS USA 111 (18): E1823-32, which is incorporated herein by reference.
The present Example uses an in vitro FM-HCR assay in which a reporter plasmid with 0° MeG-containing oligonucleotides is used to assay MGMT activity in cells. The O^6MeG-containing oligonucleotides induce transcription errors that lead to expression of fluorescent mPlum protein. Functional MGMT will repair the O'MeG sites and reduce mPlum expression. This represents a rapid and validated assay system to assess intracellular activity of MGMT. Further description of certain such assays is found in Nagel et al., 2014 PNAS USA 111 (18): E1823-32 and Piett et al., 2021 Nat. Protoc. 16 (9): 4265-4298, each of which is incorporated herein by reference.
The in vitro FM-HCR assay was performed using the U251 human glioblastoma cell line. The cells were cultured in DMEM with 10% FBS and passaged every three days.
To express MGMT variants in the cells, plasmids encoding each MGMT variant were designed and generated by either de novo synthesis or cloning into the pTwist EF1 Alpha Puro vector at the HindII-BamHI multiple cloning site. The pTwist EF1 Alpha Puro plasmid vector drives expression of the MGMT transcript from a human EF1-alpha promoter including intron 1 and an SV40 polyadenylation signal. Plasmids encoding the MGMT variants were purified using standard molecular biology techniques from E. coli with low endotoxins. Plasmids encoding wild-type MGMT or O^6BG-resistant MGMT^P140K were also designed and generated for use as controls.
To perform the in vitro FM-HCR assay, U251 cells were seeded in 12-well plates at a density of 50,000 cells per well in 1 mL culture media. The following day, the media was changed to 1 mL of culture media containing O^6BG (100 μM O^6BG and 0.1% DMSO final) or 0.1% DMSO; and the cells were transfected with 1,000 ng of a plasmid cocktail using Lipofectamine 3000 (ThermoFisher Scientific) at 1.8 μL Lipofectamine 3000 Reagent and 2 μL P3000 reagent in Opti-MEM medium (ThermoFisher Scientific). […] For the “undamaged” condition, the plasmid cocktail replaced the mPlum O^6MeG reporter plasmid with 100 ng of a plasmid expressing mPlum. The plasmid encoding BFP was used as an internal transfection control. For transfections where no MGMT encoding plasmid is used (no pMGMT), 250 ng of additional carrier plasmid was used to maintain a total DNA amount of 1,000 ng in each transfection. Four hours after transfection, the transfection medium was changed.
All transfected cells were analyzed by flow cytometry at 24-hours after transfection. Data was analyzed as previously described in Nagel et al., 2014 PNAS USA 111 (18): E1823-32 and Piett et al., 2021 Nat. Protoc. 16 (9): 4265-4298. For each condition, normalized reporter expression was determined by taking the product of the mPlum-positive cell count and the mean mPlum fluorescence intensity in mPlum-positive cells and dividing it by the product of the BFP-positive cell count and the mean BFP fluorescence intensity in BFP-positive cells. Next, for each MGMT variant, the percent reporter expression was determined by taking the normalized reporter expression in the “damaged” condition and dividing it by the normalized reporter expression in the “undamaged” condition, and then multiplying by 100 to obtain a percent value. […]

B1: P140K: O^6BG-resistant MGMT polypeptide with K at position 140, SEQ ID NO: 8; used as control (protein)
chain: MDKDCEMKRTTLDSPLGKLELSGCEQGLHEIKLLGKGTSAADAVEVPAPAAVLGGPEPLMQCTAWLNAYFHQPEAIEEFPVPALHHPVFQQESFTRQVLWKLLKVVKFGEVISYQQLAALAGNPKAARAVGGAMRGNPVKILIPCHRVVCSSGAVGNYSGGLAVKEWLLAHEGHRLGKPGLGGSSGLAGAWLKGAGATSGSPPAGRN
modifications: REGION 1..207: note = Synthetic: MGMTP140K
notes: used as control
B1: the “Reporter expression (%) mean, O^6BG” value is on record as 34.8%; the “Reporter expression (%) mean, DMSO” value is 30.2%; the “MGMT activity (a.u.) DMSO” value was 3.31 a.u; the “MGMT activity (% of WT) DMSO” value is recorded as 61.3 % of WT. Besides, the “Relative MGMT activity (%)” value came to 86.8%, the “MGMT activity (a.u.) O^6BG” value is reported as 2.87 a.u, the “MGMT activity (% of WT) O^6BG” value was 201.1 % of WT and the “Ratio percent reporter expression (O^6BG/DMSO)” value was found to be 1.15. For the same molecule, the “O^6BG resistance relative to WT (%)” value is 228.4%.

B2: L33P: MGMT polypeptide with mutation L33P (protein)
chain: MDKDCEMKRTTLDSPLGKLELSGCEQGLHEIKPLGKGTSAADAVEVPAPAAVLGGPEPLMQCTAWLNAYFHQPEAIEEFPVPALHHPVFQQESFTRQVLWKLLKVVKFGEVISYQQLAALAGNPKAARAVGGAMRGNPVPILIPCHRVVCSSGAVGNYSGGLAVKEWLLAHEGHRLGKPGLGGSSGLAGAWLKGAGATSGSPPAGRN
Regarding B2, the “Reporter expression (%) mean, O^6BG” value was 54.7%; the “Reporter expression (%) mean, DMSO” value was 12.3%; the “MGMT activity (a.u.) DMSO” value was found to be 8.11 a.u; the “MGMT activity (% of WT) DMSO” value is listed as 150.0 % of WT. Further, the “Relative MGMT activity (%)” value came out at 22.6%, the “MGMT activity (a.u.) O^6BG” value is 1.83 a.u, the “MGMT activity (% of WT) O^6BG” value is recorded as 128.0 % of WT and the “Ratio percent reporter expression (O^6BG/DMSO)” value was 4.43. The “O^6BG resistance relative to WT (%)” value is −14.6%.

B3: L33Y: MGMT polypeptide with mutation L33Y (protein)
chain: MDKDCEMKRTTLDSPLGKLELSGCEQGLHEIKYLGKGTSAADAVEVPAPAAVLGGPEPLMQCTAWLNAYFHQPEAIEEFPVPALHHPVFQQESFTRQVLWKLLKVVKFGEVISYQQLAALAGNPKAARAVGGAMRGNPVPILIPCHRVVCSSGAVGNYSGGLAVKEWLLAHEGHRLGKPGLGGSSGLAGAWLKGAGATSGSPPAGRN
As for B3, the “Reporter expression (%) mean, O^6BG” value is reported as 77.3%; the “Reporter expression (%) mean, DMSO” value is 17.0%; the “MGMT activity (a.u.) DMSO” value is recorded as 5.88 a.u; the “MGMT activity (% of WT) DMSO” value is 108.8 % of WT. Moreover, the “Relative MGMT activity (%)” value turned out to be 22.0%, the “MGMT activity (a.u.) O^6BG” value is recorded as 1.29 a.u, the “MGMT activity (% of WT) O^6BG” value is listed as 90.6 % of WT and the “Ratio percent reporter expression (O^6BG/DMSO)” value is recorded as 4.54. Also, the “O^6BG resistance relative to WT (%)” value is on record as −16.7%.

B4: L33R: MGMT polypeptide with mutation L33R (protein)
chain: MDKDCEMKRTTLDSPLGKLELSGCEQGLHEIKRLGKGTSAADAVEVPAPAAVLGGPEPLMQCTAWLNAYFHQPEAIEEFPVPALHHPVFQQESFTRQVLWKLLKVVKFGEVISYQQLAALAGNPKAARAVGGAMRGNPVPILIPCHRVVCSSGAVGNYSGGLAVKEWLLAHEGHRLGKPGLGGSSGLAGAWLKGAGATSGSPPAGRN
As to B4, the “Reporter expression (%) mean, O^6BG” value stood at 58.3%; the “Reporter expression (%) mean, DMSO” value was determined as 15.0%; the “MGMT activity (a.u.) DMSO” value amounted to 6.67 a.u; the “MGMT activity (% of WT) DMSO” value is listed as 123.3 % of WT. Also, the “Relative MGMT activity (%)” value was 25.7%, the “MGMT activity (a.u.) O^6BG” value came out at 1.71 a.u, the “MGMT activity (% of WT) O^6BG” value is 120.0 % of WT and the “Ratio percent reporter expression (O^6BG/DMSO)” value turned out to be 3.89. Further, the “O^6BG resistance relative to WT (%)” value is −2.7%.

B5: L33K: MGMT polypeptide with mutation L33K (protein)
chain: MDKDCEMKRTTLDSPLGKLELSGCEQGLHEIKKLGKGTSAADAVEVPAPAAVLGGPEPLMQCTAWLNAYFHQPEAIEEFPVPALHHPVFQQESFTRQVLWKLLKVVKFGEVISYQQLAALAGNPKAARAVGGAMRGNPVPILIPCHRVVCSSGAVGNYSGGLAVKEWLLAHEGHRLGKPGLGGSSGLAGAWLKGAGATSGSPPAGRN
For the molecule B5, the “Reporter expression (%) mean, O^6BG” value was 62.3%; the “Reporter expression (%) mean, DMSO” value stood at 16.0%; the “MGMT activity (a.u.) DMSO” value is 6.25 a.u; the “MGMT activity (% of WT) DMSO” value is given as 115.6 % of WT. The “Relative MGMT activity (%)” value came out at 25.7%, the “MGMT activity (a.u.) O^6BG” value is 1.61 a.u, the “MGMT activity (% of WT) O^6BG” value is recorded as 112.4 % of WT and the “Ratio percent reporter expression (O^6BG/DMSO)” value is on record as 3.89. Further, the “O^6BG resistance relative to WT (%)” value was −2.7%.

B6: L33F: MGMT polypeptide with mutation L33F (protein)
chain: MDKDCEMKRTTLDSPLGKLELSGCEQGLHEIKFLGKGTSAADAVEVPAPAAVLGGPEPLMQCTAWLNAYFHQPEAIEEFPVPALHHPVFQQESFTRQVLWKLLKVVKFGEVISYQQLAALAGNPKAARAVGGAMRGNPVPILIPCHRVVCSSGAVGNYSGGLAVKEWLLAHEGHRLGKPGLGGSSGLAGAWLKGAGATSGSPPAGRN
Regarding B6, the “Reporter expression (%) mean, O^6BG” value is reported as 77.0%; the “Reporter expression (%) mean, DMSO” value was 14.3%; the “MGMT activity (a.u.) DMSO” value amounted to 6.98 a.u; the “MGMT activity (% of WT) DMSO” value is 129.1 % of WT. Besides, the “Relative MGMT activity (%)” value came out at 18.6%, the “MGMT activity (a.u.) O^6BG” value was determined as 1.30 a.u, the “MGMT activity (% of WT) O^6BG” value is 90.9 % of WT and the “Ratio percent reporter expression (O^6BG/DMSO)” value stood at 5.37. The “O^6BG resistance relative to WT (%)” value was −29.6%.

B7: L33W: MGMT polypeptide with mutation L33W (protein)
chain: MDKDCEMKRTTLDSPLGKLELSGCEQGLHEIKWLGKGTSAADAVEVPAPAAVLGGPEPLMQCTAWLNAYFHQPEAIEEFPVPALHHPVFQQESFTRQVLWKLLKVVKFGEVISYQQLAALAGNPKAARAVGGAMRGNPVPILIPCHRVVCSSGAVGNYSGGLAVKEWLLAHEGHRLGKPGLGGSSGLAGAWLKGAGATSGSPPAGRN
For the molecule B7, the “Reporter expression (%) mean, O^6BG” value came out at 57.7%; the “Reporter expression (%) mean, DMSO” value is reported as 14.3%; the “MGMT activity (a.u.) DMSO” value amounted to 6.98 a.u; the “MGMT activity (% of WT) DMSO” value was 129.1 % of WT. In addition, the “Relative MGMT activity (%)” value came out at 24.9%, the “MGMT activity (a.u.) O^6BG” value is reported as 1.73 a.u, the “MGMT activity (% of WT) O^6BG” value is recorded as 121.4 % of WT and the “Ratio percent reporter expression (O^6BG/DMSO)” value stood at 4.02. Also, the “O^6BG resistance relative to WT (%)” value is recorded as −6.0%.

For the origin of these results see patent publication US20250135039A1, “INHIBITOR-RESISTANT MGMT MODIFICATIONS AND MODIFICATION OF MGMT-ENCODING NUCLEIC ACIDS” (Ensoma, Inc., priority 2022, published 2025).
